Test results: patent publication US20220048967A1 (published 2022)
Numbered stars: 1 amine (or outer) side, 2 acyl side, 3 side chain; on linkers, the order of the positions; unused ones are H or OH. Square brackets hold non-standard residues; d marks the D form. Side chains are listed from the residue outwards. Ends that are not written are not given here. * marks the point of attachment. C20 diacid = O=C(O)CCCCCCCCCCCCCCCCCCC(=O)*; γGlu = O=C(O)[C@H](CCC(=O)[*:2])N[*:1]; αMeL = CC(C)C[C@](C)(N)C(=O)O; Dab = NCC[C@H](N)C(=O)O; AEEA = NCCOCCOCC(=O)O; Aib = CC(C)(N)C(=O)O

T1: human gastric inhibitory peptide receptor (GIPR) (human, UniProt P48546 22-466)
T1 sequence (looked up): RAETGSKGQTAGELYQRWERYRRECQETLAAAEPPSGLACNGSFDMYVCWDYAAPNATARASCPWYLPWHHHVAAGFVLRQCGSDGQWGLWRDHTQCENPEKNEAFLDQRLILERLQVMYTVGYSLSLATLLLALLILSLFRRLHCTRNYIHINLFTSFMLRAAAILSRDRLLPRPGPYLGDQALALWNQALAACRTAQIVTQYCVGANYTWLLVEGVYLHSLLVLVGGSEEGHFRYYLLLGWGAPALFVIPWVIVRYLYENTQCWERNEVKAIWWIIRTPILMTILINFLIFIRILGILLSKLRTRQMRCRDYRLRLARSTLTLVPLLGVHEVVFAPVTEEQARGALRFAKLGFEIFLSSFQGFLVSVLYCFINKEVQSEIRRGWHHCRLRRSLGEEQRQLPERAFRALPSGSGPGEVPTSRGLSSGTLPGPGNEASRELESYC


Assays:
[1] = target: human GLP-1 receptor (GLP-1R) (human, UniProt P43220 24-463); assay: cell-based or functional assay
[2] = target: T1, human gastric inhibitory peptide …; assay: cell-based or functional assay

| Binder | hGLP1R cAMP EC50 ratio [1] | hGLP1R cAMP Rel EC50 [1] | hGIPR cAMP EC50 ratio [2] | hGIPR cAMP Rel EC50 [2] |
| --- | --- | --- | --- | --- |
| Y[Aib]EGTFTSDYSILLDEK([AEEA-AEEA-γGlu-C20 diacid])AQ[Aib]AFIEYLIAGGPSSGAPPPS-NH2 (N-terminus assumed; SMILES CC[C@H](C)[C@H](NC(=O)[C@H](CC(C)C)NC(=O)[C@H](Cc1ccc(O)cc1)NC(=O)[C@H](CCC(=O)O)NC(=O)[C@@H](NC(=O)[C@H](Cc1ccccc1)NC(=O)[C@H](C)NC(=O)C(C)(C)NC(=O)[C@H](CCC(N)=O)NC(=O)[C@H](C)NC(=O)[C@H](CCCCNC(=O)COCCOCCNC(=O)COCCOCCNC(=O)CC[C@H](NC(=O)CCCCCCCCCCCCCCCCCCC(=O)O)C(=O)O)NC(=O)[C@H](CCC(=O)O)NC(=O)[C@H](CC(=O)O)NC(=O)[C@H](CC(C)C)NC(=O)[C@H](CC(C)C)NC(=O)[C@@H](NC(=O)[C@H](CO)NC(=O)[C@H](Cc1ccc(O)cc1)NC(=O)[C@H](CC(=O)O)NC(=O)[C@H](CO)NC(=O)[C@@H](NC(=O)[C@H](Cc1ccccc1)NC(=O)[C@@H](NC(=O)CNC(=O)[C@H](CCC(=O)O)NC(=O)C(C)(C)NC(=O)[C@@H](N)Cc1ccc(O)cc1)[C@@H](C)O)[C@@H](C)O)[C@@H](C)CC)[C@@H](C)CC)C(=O)N[C@@H](C)C(=O)NCC(=O)NCC(=O)N1CCC[C@H]1C(=O)N[C@@H](CO)C(=O)N[C@@H](CO)C(=O)NCC(=O)N[C@@H](C)C(=O)N1CCC[C@H]1C(=O)N1CCC[C@H]1C(=O)N1CCC[C@H]1C(=O)N[C@@H](CO)C(N)=O) [Example 330] | 0.255 | 199 pM | 0.562 | 91.9 pM |
| [dY][Aib]EGTFTSDYSI[αMeL]LD[Dab]K([AEEA-AEEA-γGlu-C20 diacid])AQ[Aib]AFIEYLIAGGPSSGAPPPS-NH2 (N-terminus assumed; SMILES CC[C@H](C)[C@H](NC(=O)[C@H](CC(C)C)NC(=O)[C@H](Cc1ccc(O)cc1)NC(=O)[C@H](CCC(=O)O)NC(=O)[C@@H](NC(=O)[C@H](Cc1ccccc1)NC(=O)[C@H](C)NC(=O)C(C)(C)NC(=O)[C@H](CCC(N)=O)NC(=O)[C@H](C)NC(=O)[C@H](CCCCNC(=O)COCCOCCNC(=O)COCCOCCNC(=O)CC[C@H](NC(=O)CCCCCCCCCCCCCCCCCCC(=O)O)C(=O)O)NC(=O)[C@H](CCN)NC(=O)[C@H](CC(=O)O)NC(=O)[C@H](CC(C)C)NC(=O)[C@](C)(CC(C)C)NC(=O)[C@@H](NC(=O)[C@H](CO)NC(=O)[C@H](Cc1ccc(O)cc1)NC(=O)[C@H](CC(=O)O)NC(=O)[C@H](CO)NC(=O)[C@@H](NC(=O)[C@H](Cc1ccccc1)NC(=O)[C@@H](NC(=O)CNC(=O)[C@H](CCC(=O)O)NC(=O)C(C)(C)NC(=O)[C@H](N)Cc1ccc(O)cc1)[C@@H](C)O)[C@@H](C)O)[C@@H](C)CC)[C@@H](C)CC)C(=O)N[C@@H](C)C(=O)NCC(=O)NCC(=O)N1CCC[C@H]1C(=O)N[C@@H](CO)C(=O)N[C@@H](CO)C(=O)NCC(=O)N[C@@H](C)C(=O)N1CCC[C@H]1C(=O)N1CCC[C@H]1C(=O)N1CCC[C@H]1C(=O)N[C@@H](CO)C(N)=O) [Example 347] | 0.245 | 102 pM | 0.872 | 82.7 pM |
| FXEGTFTSDYSIXLDKKAQXAFIEYLIEGGPSSGAPPPS (Aib2, αMeL13, (2-[2-(2-Amino-ethoxy)-ethoxy]-acetyl)2-(γ-Glu)-CO-(CH2)18-CO2H on K17, Aib20, C-terminal NH2) [Example 327] | 0.191 | 270 pM | 1.47 | 54.8 pM |
| FXEGTFTSDYSIXLDKKAQXAFIEYLIAGGPSSGAPPPS (not fully specified; Aib2, αMeL13, (2-[2-(2-Amino-ethoxy)-ethoxy]-acetyl)2-(γ-Glu)-CO-(CH2)18-CO2H on K17, Aib20, C-terminal NH2) [Example 337] | 0.265 | 173 pM | 1.18 | 51.5 pM |
| YXEGTFTSDYSIXLDEKAQXEFIEYLIAGGPSSGAPPPS (Aib2, αMeL13, (2-[2-(2-Amino-ethoxy)-ethoxy]-acetyl)2-(γ-Glu)-CO-(CH2)18-CO2H on K17, Aib20, C-terminal NH2) [Example 331] | 0.808 | 92.9 pM | 1.4 | 54.7 pM |
| YXEGTFTSDYSIXLDEKAQXAFIEYLIAGGPSSGAPPPS (Aib2, αMeL13, (2-[2-(2-Amino-ethoxy)-ethoxy]-acetyl)2-(γ-Glu)-CO-(CH2)18-CO2H on K17, Aib20, C-terminal NH2) [Example 332] | 0.345 | 184 pM | 0.949 | 74.5 pM |
| XXEGTFTSDYSIXLDEKAQXEFIEYLIAGGPSSGAPPPS (not fully specified; D-Tyr1, Aib2, αMeL13, (2-[2-(2-Amino-ethoxy)-ethoxy]-acetyl)2-(γ-Glu)-CO-(CH2)18-CO2H on K17, Aib20, C-terminal NH2) [Example 342] | 0.198 | 127 pM | 0.32 | 159 pM |
| YXEGTFTSDYSIXLDKKAQXEFIEYLIAGGPSSGAPPPS (not fully specified; Aib2, αMeL13, (2-[2-(2-Amino-ethoxy)-ethoxy]-acetyl)-(γ-Glu)-CO-(CH2)18-CO2H on K17, Aib20, C-terminal NH2) [Example 339] | 0.574 | 98.6 pM | 3.18 | 21.9 pM |
| YXEGTFTSDYSIXLDEKAQXDFIEYLIAGGPSSGAPPPS (Aib2, αMeL13, (2-[2-(2-Amino-ethoxy)-ethoxy]-acetyl)2-(γ-Glu)-CO-(CH2)18-CO2H on K17, Aib20, C-terminal NH2) [Example 344] | 1.86 | 44 pM | 1.79 | 43.3 pM |
| XXEGTFTSDYSIXLDKKAQXAFIEYLIAGGPSSGAPPPS (not fully specified; D-Tyr1, Aib2, αMeL13, (2-[2-(2-Amino-ethoxy)-ethoxy]-acetyl)2-(γ-Glu)-CO-(CH2)18-CO2H on K17, Aib20, C-terminal NH2) [Example 340] | 0.183 | 252 pM | 0.852 | 82.3 pM |
| YXEGTFTSDYSIXLDKKAQXEFIEYLIEGGPSSGAPPPS (not fully specified; Aib2, αMeL13, (2-[2-(2-Amino-ethoxy)-ethoxy]-acetyl)2-(γ-Glu)-CO-(CH2)18-CO2H on K17, Aib20, C-terminal NH2) [Example 333] | 0.487 | 131 pM | 2.31 | 49.2 pM |
| XXEGTFTSDYSIXLDKKAQXAFIEYLIEGGPSSGAPPPS (not fully specified; D-Tyr1, Aib2, αMeL13, (2-[2-(2-Amino-ethoxy)-ethoxy]-acetyl)2-(γ-Glu)-CO-(CH2)18-CO2H on K17, Aib20, C-terminal NH2) [Example 334] | 0.151 | 303 pM | 0.844 | 71.8 pM |
| FXEGTFTSDYSIXLDKKAQXAFIEYLIEAGPSSGAPPPS (Aib2, αMeL13, (2-[2-(2-Amino-ethoxy)-ethoxy]-acetyl)2-(γ-Glu)-CO-(CH2)16-CO2H on K17, Aib20, C-terminal NH2) [Example 328] | 0.575 | 117 pM | 0.94 | 96.5 pM |
| XXEGTFTSDYSIXLDXKAQXAFIEYLIAGGPSSGAPPPS (D-Tyr1, Aib2, αMeL13, Orn16, (2-[2-(2-Amino-ethoxy)-ethoxy]-acetyl)2-(γ-Glu)-CO-(CH2)18-CO2H on K17, Aib20, C-terminal NH2) [Example 346] | 0.21 | 128 pM | 0.604 | 144 pM |
| XXEGTFTSDYSIXLDEKAQXAFIEYLIAGGPSSGAPPPS (not fully specified; D-Tyr1, Aib2, αMeL13, (2-[2-(2-Amino-ethoxy)-ethoxy]-acetyl)2-(γ-Glu)-CO-(CH2)18-CO2H on K17, Aib20, C-terminal NH2) [Example 341] | 0.0674 | 373 pM | 0.213 | 238 pM |
| YXEGTFTSDYSIXLDEKAQXAFIXYLIAGGPSSGAPPPS (not fully specified; Aib2, αMeL13, (2-[2-(2-Amino-ethoxy)-ethoxy]-acetyl)2-(γ-Glu)-CO-(CH2)18-CO2H on K17, Aib20, D-Glu24, C-terminal NH2) [Example 343] | 0.662 | 124 pM | 1.84 | 42.2 pM |
| XXEGTXTSDYSILLDKKAQXAFIEYLIEGGPSSGAPPPS (D-Tyr1, Aib2, αMeF6, (2-[2-(2-Amino-ethoxy)-ethoxy]-acetyl)2-(γ-Glu)-CO-(CH2)18-CO2H on K17, Aib20, C-terminal NH2) [Example 329] | 0.535 | 125 pM | 0.687 | 132 pM |
| FXEGTFTSDYSIXLDKKAQXEFIEYLIAGGPSSGAPPPS (not fully specified; Aib2, αMeL13, (2-[2-(2-Amino-ethoxy)-ethoxy]-acetyl)2-(γ-Glu)-CO-(CH2)18-CO2H on K17, Aib20, C-terminal NH2) [Example 338] | 0.262 | 174 pM | 1.29 | 47.2 pM |
